{
  "source": "patent EP1280904B1",
  "about": "(CALIFORNIA INSTITUTE OF TECHNOLOGY, dated 2005)",
  "assay_in_all_cases": "cell-based or functional assay",
  "key": {"MRGA1-GFP fusion protein": {"molecular_target": "T1, MRGA1-GFP fusion protein (mouse, UniProt Q91WW5 1-304)", "T1 sequence": "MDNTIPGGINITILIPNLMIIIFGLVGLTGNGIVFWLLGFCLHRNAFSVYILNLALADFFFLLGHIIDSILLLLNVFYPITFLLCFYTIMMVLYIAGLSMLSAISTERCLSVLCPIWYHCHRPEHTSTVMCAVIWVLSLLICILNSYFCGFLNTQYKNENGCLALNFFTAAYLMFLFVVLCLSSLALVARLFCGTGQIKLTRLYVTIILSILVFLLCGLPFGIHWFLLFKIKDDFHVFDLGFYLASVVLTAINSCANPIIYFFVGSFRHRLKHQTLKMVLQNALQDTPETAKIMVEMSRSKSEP"}, "[1]": {"molecular_target": "MRGA4-GFP fusion protein (mouse) (UniProt Q91WW2)", "sequence (Q91WW2 9-313 A204G limits assumed, form in doubt)": "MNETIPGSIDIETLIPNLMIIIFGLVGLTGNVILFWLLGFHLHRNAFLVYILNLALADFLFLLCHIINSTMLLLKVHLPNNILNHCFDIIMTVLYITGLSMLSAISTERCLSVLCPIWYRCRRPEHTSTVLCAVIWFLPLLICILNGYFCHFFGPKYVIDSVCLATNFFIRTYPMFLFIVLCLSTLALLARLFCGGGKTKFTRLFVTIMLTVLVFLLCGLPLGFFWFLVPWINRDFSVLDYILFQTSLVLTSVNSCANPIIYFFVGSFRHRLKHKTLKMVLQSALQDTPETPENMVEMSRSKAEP"}, "MAS1": {"molecular_target": "MAS1"}},
  "note": "Where no end group is shown, it is not given here.",
  "data": [
    {"molecule": "ACTH (peptide)", "values": [
      {"measurement": "EC50 of calcium dose-response, HEK cells expressing G 15 (data not shown)", "setting": "MRGA1-GFP fusion protein", "value": 60, "unit": "nM"},
      {"measurement": "EC50 of calcium dose-response, HEK cells expressing G 15 (data not shown)", "setting": "[1]", "value": 200, "unit": "nM"}
    ]},
    {"molecule": "NPAF (peptide)", "values": [
      {"measurement": "EC50 of calcium dose-response, HEK cells expressing G 15", "setting": "[1]", "value": 60, "unit": "nM"}
    ]},
    {"molecule": "NPFF (peptide)", "values": [
      {"measurement": "EC50 of calcium dose-response, HEK cells expressing G 15", "setting": "MRGA1-GFP fusion protein", "value": 200, "unit": "nM"},
      {"measurement": "EC50 of calcium dose-response, HEK-G 15 cells", "setting": "MAS1", "value": 400, "unit": "nM"}
    ]},
    {"molecule": "FLRF-NH2", "note": "[FLRFamide]", "values": [
      {"measurement": "EC50 of calcium dose-response, HEK cells expressing G 15", "setting": "MRGA1-GFP fusion protein", "value": 20, "unit": "nM"}
    ]}
  ]
}
